Measurements as given in patent publication US20240382610A1 (TALLAC THERAPEUTICS, published 2024).

T1: Human nectin-4 ECD-6His (TNT-175) (human, UniProt Q96NY8 32-349)
T1 construct: the entry holds the extracellular domain with the C-terminal 6His tag
T1 sequence: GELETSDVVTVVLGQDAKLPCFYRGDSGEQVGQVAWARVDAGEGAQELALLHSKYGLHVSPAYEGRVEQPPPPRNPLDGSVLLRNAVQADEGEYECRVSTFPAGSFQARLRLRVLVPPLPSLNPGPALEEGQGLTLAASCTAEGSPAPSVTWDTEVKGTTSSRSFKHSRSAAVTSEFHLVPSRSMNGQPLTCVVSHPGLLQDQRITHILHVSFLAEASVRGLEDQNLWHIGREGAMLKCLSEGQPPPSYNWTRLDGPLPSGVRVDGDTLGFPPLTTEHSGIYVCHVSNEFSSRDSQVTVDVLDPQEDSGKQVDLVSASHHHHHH

T2: Mouse nectin-4 ECD-6His (TNT-250) (mouse, UniProt Q8R007 31-347)
T2 construct: entry includes the 6His tag; also called mouse nectin-4-LCD
T2 sequence: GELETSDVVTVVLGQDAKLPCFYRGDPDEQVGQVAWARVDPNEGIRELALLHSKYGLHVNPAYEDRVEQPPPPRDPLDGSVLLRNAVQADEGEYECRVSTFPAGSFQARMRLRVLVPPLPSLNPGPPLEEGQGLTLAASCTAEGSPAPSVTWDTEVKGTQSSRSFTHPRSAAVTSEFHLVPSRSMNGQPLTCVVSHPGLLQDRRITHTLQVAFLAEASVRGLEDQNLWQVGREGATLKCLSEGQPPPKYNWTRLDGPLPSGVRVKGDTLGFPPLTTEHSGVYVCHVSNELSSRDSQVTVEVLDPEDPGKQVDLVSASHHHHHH

T3: Human nectin-4-IgV-6His (TNT-252) (human, UniProt Q96NY8 32-147)
T3 construct: entry includes the 6His tag
T3 sequence: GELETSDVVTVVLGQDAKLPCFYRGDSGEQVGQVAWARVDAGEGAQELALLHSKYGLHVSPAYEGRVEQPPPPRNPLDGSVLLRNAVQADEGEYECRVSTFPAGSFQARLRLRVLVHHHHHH

T4: Cyno nectin-4 ECD-6His (TNT-255) (cynomolgus, UniProt Q96NY8 32-349 (human entry))
T4 construct: entry includes the 6His tag
T4 chain: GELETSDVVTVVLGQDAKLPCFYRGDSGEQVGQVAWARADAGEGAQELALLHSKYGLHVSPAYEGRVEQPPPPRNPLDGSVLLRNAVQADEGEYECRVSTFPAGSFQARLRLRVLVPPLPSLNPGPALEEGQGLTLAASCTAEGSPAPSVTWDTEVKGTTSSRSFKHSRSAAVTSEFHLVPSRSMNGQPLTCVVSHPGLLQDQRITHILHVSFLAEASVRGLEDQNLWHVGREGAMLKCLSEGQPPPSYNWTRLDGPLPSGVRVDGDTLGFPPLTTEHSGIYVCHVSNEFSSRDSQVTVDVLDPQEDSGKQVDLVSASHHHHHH


What was measured:
Experiment in all cases: SPR Biacore 8K, mAb on protein A
[1] = target: T1, Human nectin-4 ECD-6His (TNT-175)
Method: (§1) The running buffer was 10 mM HEPES, pH 7.4, 150 mM NaCl, 3 mM EDTA, 0.05% (v/v) Surfactant P20 (HBS-EP+). […] The nectin-4 analytes were injected in either single-cycle kinetics or multi-cycle kinetics mode at nominal starting concentrations of 300 nM or 900 nM with 3-fold serial dilutions. Association times were monitored for 120 s, and dissociation times were monitored 1800 s at 30 μL/min flow rate. The surfaces were regenerated with 10 mM glycine at pH1.7 or 75 mM phosphoric acid at pH1.6 for two pulses of 15 s at 30 μL/min flow rate.
(§2) The data were processed and analyzed with Biacore 8K Evaluation Software Version 3.0.12.15655 (Cytiva, Global Life Sciences Solutions USA LLC, Marlborough, MA). […] The responses from the nearest buffer blank injection were then subtracted from the reference subtracted data (2-1) to yield double-referenced data. These double-reference data were fit to a simple 1:1 Langmuir binding model with mass transport to determine the apparent association (ka) and dissociation rate constants (kd). The apparent equilibrium dissociation constant or affinity constant was then calculated based on their ratio as (KD=kd/ka).

[2] = target: T2, Mouse nectin-4 ECD-6His (TNT-250)
Method: as §1, §2

[3] = target: T3, Human nectin-4-IgV-6His (TNT-252)
Method: as §1, §2

[4] = target: T4, Cyno nectin-4 ECD-6His (TNT-255)
Method: as §1, §2

Row | Binder | Kd [1] | Kd [2] | Kd [3] | Kd [4] | binding result [2] | binding result [3]
1 | TNT-320 (antibody, V domains shown, human IgG1) VH: QVQLVQSGAEVKKPGASVKVSCKASGYTFTVYYIHWVRQAPGQGLEWMGWISPNSGGTNYAQKFQGRVTMTRDTSISTAYMELTRLRSDDTAIFYCARQTVVTPNWGFDYWGQGTLVTVSS VL: not shown | 18.4 nM | – | 9.91 nM | 35.9 nM | no binding (tested: up to 300 or 900 nM analyte) | –
2 | TNT-323 (antibody, V domains shown, human IgG1) VH: QVQLQESGPGLVKPSETLSLTCTVSGGSISSYFWNWIRQPPGKGLEWIGYLYYIGTTNYNPSLKSRVTISVDTSKNQFSLKLNSVTAADTAVYYCARSGNYYNDAFDIWGQGTMVTVSS VL: not shown | 9 nM | – | – | 8.67 nM | no binding (tested: up to 300 or 900 nM analyte) | no binding (tested: up to 300 or 900 nM analyte)
3 | TNT-328 (antibody, V domains shown, human IgG1) VH: QVQLQESGPGLVKPSETLSLTCTVSGGSMSSYFWSWIRQPPERGLEWVGYMYYSGNTNYNPSLKSRVTTSIDTSKNQFSLKLTSVTAADTAVYYCARSGNFYWNFDLWGRGTLVTVSS VL: QSVLTQPPSVSGAPGQRVTISCTGSSSNIGAGYNVHWYQQLPGTAPKVLISGNSNRPSGVPDRFSGSKSGTSASLAITGLQAEDEADYYCQSYDSSLSGSAVFGGGTKLTVLG | 1.59 nM | – | – | 1.78 nM | no binding (tested: up to 300 or 900 nM analyte) | no binding (tested: up to 300 or 900 nM analyte)
4 | TNT-327 (antibody, V domains shown, human IgG1) VH: QVQLQESGPGLVKPSETLSLTCTVSGGSISDYYWIWIRQPAGKGLEWIGRIYTTGGAKYNPSLKSRVTMSIDTSKNNFSLKLSSVTAADTAVYFCARDRNWEWNFDLWGRGTLVTVSS VL: QSALTQPASVSGSPGQSITISCTGTTSDIGSYNLVSWYQQHPGKAPKLMIYEVSMSPSGVSDRFSGSKSGSTASLTISGLQAEDEADYYCSSYAGSSTVVFGGGTRLTVLG | 3.63 nM | – | 1.64 nM | 2.85 nM | no binding (tested: up to 300 or 900 nM analyte) | –
5 | TNT-324 (antibody, V domains shown, human IgG1) VH: not shown VL: QTVVTQEPSLTVSPGGTVTLTCASSTGAVTSGYYPNWFQQKPGQAPRALIYSTSNKHSWTPARFSGSLLGGKAALTLSGVQPEDEAEYYCLLYYDGAHLFGGGTKLTVLG | 64.5 nM | – | 30.7 nM | 24.4 nM | no binding (tested: up to 300 or 900 nM analyte) | –
6 | TNT-331 (antibody, V domains shown, human IgG1) VH: QVHLQESGPGLVKPSETLSLTCTVSGGSIRSYYWSWIRQPAGKGLEWIGRIYTSGSTNYNPSLKSRVTMSVDTSKNRLSLKLSSVTAADTAVYYCAKENWGPSFDYWGQGTLVTVSS VL: QSVLTQPPSVSAAPGQKVTISCSGSSSNIGNNYVSWYQQLPGTAPKLLIYDNNKRPSGIPDRFSGSKSGTSATLGITGLQTGDEADYYCGTWDTSLSSGWLFGGGTKLTVLG | 87.4 nM | – | – | 32.8 nM | no binding (tested: up to 300 or 900 nM analyte) | no binding (tested: up to 300 or 900 nM analyte)
7 | TNT-322 (antibody, V domains shown, human IgG1) VH: QVQLQESGPGLVKPSATLSLTCTVSGGSISSYYWNWIRQPPGKGLEWIGYIYYSGNTNYNPSLKSRVTISVDMSKNQFSLKLNSVTAADTAVYYCARSESYGYWFFYLWGRGTLVTVSS VL: QSVLTQPPSVSAAPGQKVTISCSGSSSNIGNNYVSWYQQFPGTAPKLLIYDNNKRPSGIPDRFSGSKSGTSATLGITGLQTGDEADYYCGTWDSSLSAGVVFGGGTKLTVLG | 57.9 nM | – | – | 51.5 nM | no binding (tested: up to 300 or 900 nM analyte) | no binding (tested: up to 300 or 900 nM analyte)

The remaining binders from weak to strong by Kd [1], led by results:

Row | Kd [1] | Kd [2] | Kd [3] | Kd [4] | Binder | binding result [2] | binding result [3]
8 | 260 nM | – | – | 211 nM | TNT-318 (antibody, V domains shown, human IgG1) VH: QVQLQESGPGLVKPSETLSLTCTVSGGSISSNYWTWIRQSAGKGLEWIGRIHISESTNYNPSLKSRVTMSVDTSKNQFSLKLSSVTAADTAVYFCAREGEWKVLGAFDIWGQGTMVTVSS VL: QTVLTQPSSLSASPGASASLTCTLRSGINVGSYRIYWYQQKPGSPPQFLLRYKSDSDKQQGSGVPSRFSGSKDDSANAGILLISGLQSEDEADYYCMIWHSSASVFGTGTKVTVLG | no binding (tested: up to 300 or 900 nM analyte) | no binding (tested: up to 300 or 900 nM analyte)
9 | 53.9 nM | 820 nM | 75.3 nM | 727 nM | TNT-205 (antibody, human IgG1, kappa) heavy: not shown light: DIVMTQSPSSLSASVGDRVTITCRASQGISNYLAWYQQKPGKVPKLLIYAASTLQSGVPSRFSGSGSGTDFTLTISSLQPEDVATYYCQKYNSAPYTFGQGTKVEIKRTVAAPSVFIFPPSDEQLKSGTASVVCLLNNFYPREAKVQWKVDNALQSGNSQESVTEQDSKDSTYSLSSTLTLSKADYEKHKVYACEVTHQGLSSPVTKSFNRGEC | – | –
10 | 24.3 nM | 68.4 nM | 24.3 nM | 48.9 nM | TNT-211 (antibody, human IgG1, kappa) heavy: not shown light: DIVMTQSPSSLSASVGDRVTITCRASQGISNYLAWYQQKPGKVPKLLIYAASTLQSGVPSRFSGSGSGTEFTLAISSLQPEDLATYYCQQLNSHPITFGQGTRLEIKRTVAAPSVFIFPPSDEQLKSGTASVVCLLNNFYPREAKVQWKVDNALQSGNSQESVTEQDSKDSTYSLSSTLTLSKADYEKHKVYACEVTHQGLSSPVTKSFNRGEC | – | –
11 | 16.4 nM | – | 7.3 nM | 13.7 nM | TNT-330 (antibody, V domains shown, human IgG1) VH: EVQLVESGGGLVKPGGSLRLSCAVSGFTFSSYNMNWVRQAPGKGLEWVSSISISSSYIYYADSVKGRFTISRDNAKNSLYLQMNSLRAEDTAVYYCARDRGLDDAFDIWGQGTVVTVSS VL: DIVMTQTPLSLPVTPGEPASISCRSSQSLLDSDDGNTYLDWYLQKPGQSPQLLIYTLSYRASGVPDRFSGSGSGTDFTLKVSRVEAEDVGVYYCMQRIEFPYTFGQGTKLEIKR | no binding (tested: up to 300 or 900 nM analyte) | –
12 | 15.7 nM | – | – | 18.3 nM | TNT-317 (antibody, V domains shown, human IgG1) VH: QVQLQESGPGLVKPSETLSLTCTVSGGSISSYFWSWIRQPPGKGLEWIGYIYYSGNTNYNPSLKSRVTISVDMSKNQFSLRLSSVTAADTAVYYCARDFHHYDGSAYRWYFDLWGRGTLVTVSS VL: QSVLTQPPSVSAAPGQKVTISCSGSSSNIGNNYVSWYQQFPGTAPKLLIYDNNKRPSGIPDRFSGSKSGTSATLGITGLQTGDEADYYCGTWDSSLNAGWVFGGGTKLTVLG | no binding (tested: up to 300 or 900 nM analyte) | no binding (tested: up to 300 or 900 nM analyte)
13 | 14 nM | – | 11.6 nM | 56 nM | TNT-321 (antibody, V domains shown, human IgG1) VH: QVQLQESGPGLVKPSETLSLTCTVSGGSISSYYWSWIRQPPGKGLEWIGYIYYSGNVNYNPSLKSRVTISVDASKNQFSLKLTSVTAADTAVYYCAIGGVGAQWDAFDIWGQGTMVTVSS VL: DIQMTQSPSAMSASVGDRVTITCRASQGISNYLAWFQQKPGKVPKRLIYAASSLQSGVPSRFSGSGSGTEFTLTISSLQPEDFATYYCLQHSFYPLTFGPGTKVDIKR | no binding (tested: up to 300 or 900 nM analyte) | –
